Laboratory results reported in US20140378372A1 (SERPIN PHARMA, published 2014).

Target: hERG (channel tested in the hERG FastPatch assay) (UniProt Q12809 1-1159)
Test: cell-based or functional assay

Sequence of hERG (channel tested in the hERG FastPatch assay) (Q12809 whole entry): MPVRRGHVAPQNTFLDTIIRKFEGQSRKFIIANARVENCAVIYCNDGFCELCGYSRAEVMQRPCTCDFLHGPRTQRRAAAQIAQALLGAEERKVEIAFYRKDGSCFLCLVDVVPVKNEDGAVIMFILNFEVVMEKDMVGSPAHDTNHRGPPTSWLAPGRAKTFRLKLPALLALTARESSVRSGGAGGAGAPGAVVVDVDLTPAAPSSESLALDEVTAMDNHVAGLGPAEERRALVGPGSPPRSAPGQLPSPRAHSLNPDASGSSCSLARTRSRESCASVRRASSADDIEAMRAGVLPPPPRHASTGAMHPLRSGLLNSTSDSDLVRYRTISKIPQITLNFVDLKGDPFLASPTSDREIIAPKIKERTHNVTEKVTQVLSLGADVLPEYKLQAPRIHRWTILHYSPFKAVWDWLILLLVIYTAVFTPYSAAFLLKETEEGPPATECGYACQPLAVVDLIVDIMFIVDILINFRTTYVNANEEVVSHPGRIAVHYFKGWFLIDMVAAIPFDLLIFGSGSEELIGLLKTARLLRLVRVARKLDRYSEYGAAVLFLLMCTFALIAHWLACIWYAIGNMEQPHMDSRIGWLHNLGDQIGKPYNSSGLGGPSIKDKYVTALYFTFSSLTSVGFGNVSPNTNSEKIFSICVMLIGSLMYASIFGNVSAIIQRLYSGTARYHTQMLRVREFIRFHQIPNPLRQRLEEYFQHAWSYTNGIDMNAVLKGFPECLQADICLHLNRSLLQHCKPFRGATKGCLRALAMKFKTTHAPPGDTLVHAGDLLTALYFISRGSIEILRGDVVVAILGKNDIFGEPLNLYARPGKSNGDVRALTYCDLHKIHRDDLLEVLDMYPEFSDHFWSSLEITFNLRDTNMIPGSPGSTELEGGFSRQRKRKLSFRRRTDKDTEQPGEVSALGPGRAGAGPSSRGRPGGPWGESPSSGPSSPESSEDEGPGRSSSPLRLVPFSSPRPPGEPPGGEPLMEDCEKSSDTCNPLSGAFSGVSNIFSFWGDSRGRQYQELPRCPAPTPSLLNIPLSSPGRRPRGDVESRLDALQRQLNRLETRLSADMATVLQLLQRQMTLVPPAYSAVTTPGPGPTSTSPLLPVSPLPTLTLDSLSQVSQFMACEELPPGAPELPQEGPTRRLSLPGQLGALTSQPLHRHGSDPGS

B1: SP16 peptide (C36 Core sequence, long; derived from human alpha-1-antitrypsin) (peptide)
peptide: VKFNKPFVFLMIEQNTK
- IC50 value (hERG FastPatch assay, test conc 0.008-25 uM): > 25 µM
